Results reported in patent publication US20240390418A1 (MINERVA BIOTECHNOLOGIES, published 2024).

B12: PSMGFR peptide (peptide)
peptide: GTINVHDVETQFNQYKTEAASRYNLTISDVSVSDVPFPFSAQSGA
notes: also called MUC1* peptide

How the values were obtained:
N-10 peptide [1] = target: T1, N-10 peptide; experiment: ELISA, peptide on plate (FIG. 9)
T1 construct: also called PSMGFR N-10; PSMGFR minus 10 amino acids from the N-terminus
T1 peptide: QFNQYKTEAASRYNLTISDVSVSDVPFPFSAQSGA

C-10 peptide [2] = target: T2, C-10 peptide; experiment: ELISA, peptide on plate (FIG. 9)
T2 construct: also called PSMGFR C-10; PSMGFR minus 10 amino acids from the C-terminus
T2 peptide: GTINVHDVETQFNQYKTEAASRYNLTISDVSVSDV

PSMGFR peptide [3] = target: B12; experiment: ELISA, peptide on plate (FIG. 9)
N-10 peptide [4] = target: T1, N-10 peptide; experiment: ELISA, peptide on plate (FIG. 201B)
Procedure: (§1) FIG. 201A-201C show graphs of ELISA assays to determine the binding of another set of antibodies generated by immunizing animals with the PSMGFR peptide. […] F3, B12, B2, B7, B9, 8C7F3 and H11 all bound to the PSMGFR peptide and to the N-10 peptide.
(§2) This same ELISA assay was performed on the antibodies of the invention (FIGS. 64-66 and FIG. 201). Note that only 20A10 exactly matches the binding profile of MNC2 and MNE6. 25E6, 28F9 and 18G12 are all able to bind to the N-10 peptide. 18B4 is the only antibody raised against the PSMGFR peptide that requires the 10 most N-terminal amino acids of the peptide. The color of the bars for each antibody in the ELISA graph are color coded to match the deductive cognate sequence, or a portion thereof, of that antibody. In addition, another set of antibodies was assayed by ELISA (FIG. 201). Of this set, B12, B2, B7, B9, 8C7F3, and H11 bound to the PSMGFR peptide, bound to the N-10 peptide, but not to the C-10 peptide (FIG. 201). Although these antibodies were raised against the N+20/C-27 peptide, all but one, 45C11, still bind to the PSMGFR peptide, albeit at the N-terminal portion of PSMGFR.

PSMGFR peptide [5] = target: B12; experiment: ELISA, peptide on plate (FIG. 201A)
Procedure: as §1, §2

C-10 peptide [6] = target: T2, C-10 peptide; experiment: ELISA, peptide on plate (FIG. 201C)
Procedure: as §1, §2

N-10 peptide [7] = target: T1, N-10 peptide; experiment: ELISA, peptide on plate (FIG. 69)
N-30 peptide = target: T3, N-30 peptide; experiment: ELISA, peptide on plate (FIG. 69)
T3 peptide: SVSDVPFPFSAQSGA

N-19/C-5 peptide = target: T4, N-19/C-5 peptide; experiment: ELISA, peptide on plate (FIG. 69)
T4 peptide: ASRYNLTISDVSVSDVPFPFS

N-19 peptide = target: T5, N-19 peptide; experiment: ELISA, peptide on plate (FIG. 69)
T5 peptide: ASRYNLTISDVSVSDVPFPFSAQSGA

N-10/C-5 peptide = target: T6, N-10/C-5 peptide; experiment: ELISA, peptide on plate (FIG. 69)
T6 peptide: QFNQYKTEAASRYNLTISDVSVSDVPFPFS

N-26 peptide = target: T7, N-26 peptide; experiment: ELISA, peptide on plate (FIG. 69)
T7 peptide: ISDVSVSDVPFPFSAQSGA

C-10 peptide [8] = target: T2, C-10 peptide; experiment: ELISA, peptide on plate (FIG. 64)
N+9/C-9 peptide = target: T8, N+9/C-9 peptide; experiment: ELISA, peptide on plate (FIG. 64)
T8 peptide: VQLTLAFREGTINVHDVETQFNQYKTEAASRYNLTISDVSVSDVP

N-10 peptide [9] = target: T1, N-10 peptide; experiment: peptide ELISA, told in tissue legend
PSMGFR peptide [10] = target: B12; experiment: peptide ELISA, told in tissue legend
PSMGFR peptide [11] = target: B12; experiment: ELISA, PSMGFR peptide on plate (FIG. 5)
Procedure: Humanized MNC2 scFv is then incubated with the surface, washed and detected according to standard methods.

N-10 peptide [12] = target: T1, N-10 peptide; experiment: ELISA, peptide on plate (FIG. 64)
C-10 peptide [13] = target: T2, C-10 peptide; experiment: peptide ELISA
PSMGFR peptide [14] = target: B12; experiment: peptide binding, told in Western blot legend
NME7AB = target: T9, NME7AB (Homo sapiens (Human), UniProt Q9Y5B8 92-376); experiment: ELISA, peptide on plate (FIG. 2A)
T9 construct: NME7A in the text appears to be NME7AB; also called NM23-H7; NME7A
T9 sequence: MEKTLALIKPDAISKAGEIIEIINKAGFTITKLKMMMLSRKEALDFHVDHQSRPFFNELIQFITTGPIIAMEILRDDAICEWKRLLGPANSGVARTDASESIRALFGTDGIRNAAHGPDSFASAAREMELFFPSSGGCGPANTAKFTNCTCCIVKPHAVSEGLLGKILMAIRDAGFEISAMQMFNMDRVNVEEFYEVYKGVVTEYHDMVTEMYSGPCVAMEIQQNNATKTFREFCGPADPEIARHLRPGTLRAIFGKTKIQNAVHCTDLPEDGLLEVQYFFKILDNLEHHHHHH
Procedure: FIGS. 2A-2I show results of ELISA assays. MUC1* peptides PSMGFR, PSMGFR minus 10 amino acids from the N-terminus aka N-10, or PSMGFR minus 10 amino acids from the C-terminus, aka C-10 are immobilized on the plate and the following are assayed for binding: NME7-AB (FIG. 2A), MNC2 monoclonal antibody (FIG. 2B), MNE6 monoclonal antibody (FIG. 2C), or dimeric NME1 (FIG. 2D). […] MUC1* peptides PSMGFR minus 10 amino acids from the N-terminus aka N-10, or PSMGFR minus 10 amino acids from the C-terminus, aka C-10, are immobilized on the plate and the following are assayed for binding: MNC3 (FIG. 2E) and MNC8 (FIG. 2F).

B1: humanized MNC3 scFv-Fc (Fc fusion)
VH: QVQLVQSGAEVKKPGASVKVSCKASGYTFTDYAMNWVRQAPGQGLEWMGVISTFSGNTNFNQKFKGRVTMTTDTSTSTAYMELRSLRSDDTAVYYCARSDYYGPYFDYWGQGTTLTVSS
VL: DIVMTQTPLSLSVTPGQPASISCRSSQTIVHSNGNTYLEWYLQKPGQSPQLLIYKVSNRFSGVPDRFSGSGSGTDFTLKISRVEAEDVGVYYCFQGSHVPFTFGGGTKVEIKRT
B1: binds (N-10 peptide [1]); binds (C-10 peptide [2]); binds (PSMGFR peptide [3]).

B2: monoclonal antibody B9 (antibody, V domains shown)
VH: EVQVVESGGDLVKPGGSLKLSCAASGFTFSRYGMSWVRQTPDKRLEWVATISSGGTYIYYPDSVKGRFTISRDNAKNTLYLQMSSLKSEDTAMYYCARDNYGSSYDYAMDYWGQGTSVTVSS
VL: QIVLTQSPAIMSASPGEEVTLTCSASSSVSYMHWFQQRPGTSPKLWIYTTSNLASGVPARFSGSGSGTSYSLTISRMEAEDAATYYCQQRSSYPFTFGSGTKLEIK
notes: Raised against PSMGFR
B2: binds (N-10 peptide [4]); binds (PSMGFR peptide [5]); no binding (C-10 peptide [6]).

B3: monoclonal antibody B2 (antibody, V domains shown)
VH: EVVLVESGGGLVEPGGSLKLSCVASGFAFSTFAMSWIRQTPEKRLEWVAAISNGGGYTYYPDTLKGRFSISRDNAKNTLYLQMSSLRSEDTAVYYCARRYYDLYFDLWGRGTSLIVSS
VL: DILMTQTPLSLPVSLGDQASISCRSSQNIVHSNGNTYLEWYLQKPGQSPKLLIYKVSNRFSGVPDRFSGSGSGTDFTLKISRVEAEDLGVYYCFQDSHVPLTFGAGTRLELK
notes: Raised against PSMGFR
B3: binds (N-10 peptide [4]); binds (PSMGFR peptide [5]); no binding (C-10 peptide [6]).

B4: monoclonal antibody B7 (antibody, V domains shown)
VH: EVQVVESGGDLVKPGGSLKLSCAASGFTFSRYGMSWVRQTPDKRLEWVATISSGGTYIYYPDSVKGRFTISRDNAKNTLYLQMSSLKSEDTAMYYCARDNYGSSYDYAMDYWGQGTSVTVSS
VL: DVLMTQTPLSLPVSLGDQASISCRSSQTIVHSNGNTYLEWYLQKPGQSPKLLIYKVSNRFSGVPDRFSGSGSGTDFTLKISRVEAEDLGVYYCFQDSHVPLTFGAGTKLELK
notes: Raised against PSMGFR
B4: binds (N-10 peptide [4]); binds (PSMGFR peptide [5]); no binding (C-10 peptide [6]).

B5: monoclonal antibody 17H6 (antibody, V domains shown)
VH: EVKLVESGGGLVQPGGSLRLSCATSGFTFTDYYMSWVRQPPRKALEWLGFIRNKANGYTAEYSASVKGRFTISRDVSQNLLYLQMNILRAEDSATYYCAKDYYGSNPAWFAYWGQGTLVTVSA
VL: DILMTQTPLSLPVSLGDQASISCRSSQSIVHSSGNTFLEWYLQKPGQSPKLLIYKVSNRFSGVPDRFSGSGSGIDFTLKISRVEAEDLGVYYCFQGSHVPFTFGSGTKLEIK
notes: Raised against the N+9/C-9 peptide; also called N+9/C-9 antibody 17H6
B5: no binding (N-10 peptide [7]); no binding (N-30 peptide); no binding (N-19/C-5 peptide). B5: no binding (N-19 peptide); no binding (N-10/C-5 peptide); no binding (N-26 peptide).

B6: monoclonal antibody 20A10 (antibody, V domains shown)
VH: EVMLVESGGGLVKPGGSLKLSCAASGFTFSTYAMSWIRQTPEKRLEWVASIGRAGSTYYSDSVKGRFTISRDNVRNILYLQMSSLRSEDTAMYYCARGPIYNDYDEFAYWGQGTLVTVSA
VL: NIMMTQSPSSLAVSAGEKVTMSCKSSQSVLYSSNQKNYLAWYQQKPGQSPKLLIYWASTRESGVPDRFTGSGSGTDFTLTISSVQAEDLAVYYCHQYLSSLTFGAGTKLELK
notes: Raised against PSMGFR; also called MN20A10; anti-PSMGFR antibody 20A10
B6: no binding (C-10 peptide [8]); no binding (N+9/C-9 peptide); binds (N-10 peptide [9]). B6: binds (PSMGFR peptide [10]).

B7: humanized MNC2 scFv (scFv, V domains shown)
VH: EVQLVESGGGLVKPGGSLRLSCAASGFTFSGYAMSWVRQAPGKGLEWVSTISSGGTYIYYPDSVKGRFTISRDNAKNSLYLQMNSLRAEDTAVYYCARLGGDNYYEYFDVWGKGTTVTVSS
VL: DIVLTQSPASLAVSPGQRATITCRASKSVSTSGYSYMHWYQQKPGQPPKLLIYLASNLESGVPARFSGSGSGTDFTLTINPVEANDTANYYCQHSRELPFTFGGGTKVEIKR
notes: also called huMNC2scFv; huMNC2 scFv
In the case of B7, the EC50 (PSMGFR peptide [11]) is reported as ~333 nM.

B8: monoclonal antibody 28F9 (antibody, V domains shown)
VH: QVQLQQPGAELVQPGASVKLSCKASGYTFTGYFLYWVKQRPGHGLEWIGGIHPSNGDTDFNEKFKNKATLTVDISSSTAYMQLSSLTSEDSAVYYCTLLIGVYWGQGTTLTVSS
VL: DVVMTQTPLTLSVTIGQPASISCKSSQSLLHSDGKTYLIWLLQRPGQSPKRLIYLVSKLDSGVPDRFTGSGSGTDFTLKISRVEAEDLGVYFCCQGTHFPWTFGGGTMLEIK
notes: Raised against PSMGFR; also called MN28F9; anti-PSMGFR antibody 28F9
B8: binds (N-10 peptide [12]); binds (N+9/C-9 peptide); binds (C-10 peptide [13]). B8: binds (PSMGFR peptide [14]).

B9: monoclonal antibody 18G12 (antibody, V domains shown)
VH: QVQLQQSGAELVKPGASVKLSCKASGYTFTGYFLYWVKQRPGQGLEWIGGINPDNGGIDFNEKFRNKATLTVDKSSSTAYMQLSSLTSEDSAVYYCTLLIGNYWGQGTTLTVSS
VL: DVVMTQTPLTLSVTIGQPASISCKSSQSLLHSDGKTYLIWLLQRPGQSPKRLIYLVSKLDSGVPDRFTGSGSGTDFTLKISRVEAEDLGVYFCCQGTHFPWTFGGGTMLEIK
notes: Raised against PSMGFR; also called MN18G12; anti-PSMGFR antibody 18G12
B9: binds (N-10 peptide [12]); binds (N+9/C-9 peptide); binds (C-10 peptide [13]). B9: binds (PSMGFR peptide [14]).

B10: monoclonal antibody B12 (antibody, V domains shown)
VH: QAQLKESGPGLVAPSQSLSITCTVSGFSLTSYGVHWVRQPPGKGLEWLGVIWPGGSTNYNSTLMSRMRIIKDNSKSQVFLKMNSLQIDDTAMYYCARDRTPRVGAWFAYWGQGTLVTVSA
VL: IIVLTQSPASLAVSLGQRATISCRASESVATYGNNFMQWYQQKPGQPPKLLIYLASTLDSGVPARFSGSGSRTDFTLTIDPVEADDAATYYCQQNNEDPPTFGGGTKLEIK
notes: Raised against PSMGFR
B10: binds (N-10 peptide [4]); binds (PSMGFR peptide [5]); no binding (C-10 peptide [6]).

B11: monoclonal antibody 8C7F3 (antibody, V domains shown)
VH: EVMLVESGGGLVKPGGSLKLSCAASGFTFSTYAMSWVRQTPEKRLEWVAAISNGGGYTYYPDSLKGRFTISRDNAKNTLYLQMSSLRSEDTATYYCARRYYDHYFDYWGQGTALTVSS
VL: IIVLTQSPASLAVSLGQRATISCRASESVATYGNNFMQWYQQKPGQPPKLLIYLASTLDSGVPARFSGSGSRTDFTLTIDPVEADDAATYYCQQNNEDPPTFGGGTKLEIK
notes: Raised against PSMGFR
B11: binds (N-10 peptide [4]); binds (PSMGFR peptide [5]); no binding (C-10 peptide [6]).

B12: binds (NME7AB).

B13: monoclonal antibody 3C2B1 (antibody, V domains shown)
VH: EVMLVESGGGLVKPGGSLKLSCAASGITFSTYTMSWVRQTPEKRLEWVATISTGGDKTYYSDSVKGRFTISRDNAKNNLYLQMSSLRSEDTALYYCARGTTAMYYYAMDYWGQGTSVTVSS
VL: DIVLTQSPASLAVSLGQRATISCRASKSISTSDYNYIHWYQQKPGQPPKLLIYLASNLESGVPARFSGSGSGTDFTLNIHPVEEEDAATYYCQHSRELPLTFGAGTKLELK
notes: Raised against PSMGFR; also called MN3C2B1; anti-PSMGFR antibody 3C2B1
B13: no binding (C-10 peptide [13]); binds (N-10 peptide [9]); binds (PSMGFR peptide [10]).
